Consider 3 molecules from PMC12809092, “A bispecific antibody designed to act as a NRP2/PLXNA1 agonist mimics anticancer activity of SEMA3F” (The Journal of Biological Chemistry, 2025).

Data set [1] concerns the target T1, hNRP2_ECD, human neuropilin-2 extracellular domain (Homo sapiens, UniProt O60462).
T1 construct: neuropilin-2, human, extracellular domain
Description: BLI; affinity of aNRP2 mAbs to hNRP2_ECD, shown as KD; as previously described; mean ± SEM of at least 3 experiments. The conditions noted are these: both partners purified.

The target of data set [2] is T2, PLXNA1-LBD, recombinant human plexinA1 ligand-binding domains (human, UniProt Q9UIW2).
T2 construct: the DNA encoded amino acids 1-710 of NP_115618.3 (signal peptide removed on secretion); The final cryo-EM model holds only the SEMA and PSI1 domains; also called hPLXNA1 LBD; source: Expi293F, transfected, purified from culture media (HiTrap MabSelect column)
Briefly: BLI; Octet Red96e; Fab captured on streptavidin tips by biotinylated anti-LC-kappa-murine antibody; PLXNA1 ECD or LBD in solution at 1.85-1350 nM; global fit, 1:1 model. Particulars: both partners purified.

The target of data set [3] is T3, PLXNA1-ECD, recombinant human plexinA1 full extracellular domains (Homo sapiens, UniProt Q9UIW2).
T3 construct: plexinA1, human, extracellular domains, aa 27-1244; the DNA encoded amino acids 1-1244 of NP_115618.3 (signal peptide removed on secretion); also called hPLXNA1 ECD; source: Expi293F, transfected, purified from culture media (HiTrap MabSelect column)
The description is as above. The conditions noted are these: both partners purified.

Data set [4] deals with the molecule itself. Description: cryo-EM structure; purified complex of PLXNA1-LBD and aPLXNA1-19-43 Fab; 3.33 Å.

T1 sequence (O60462 21-864): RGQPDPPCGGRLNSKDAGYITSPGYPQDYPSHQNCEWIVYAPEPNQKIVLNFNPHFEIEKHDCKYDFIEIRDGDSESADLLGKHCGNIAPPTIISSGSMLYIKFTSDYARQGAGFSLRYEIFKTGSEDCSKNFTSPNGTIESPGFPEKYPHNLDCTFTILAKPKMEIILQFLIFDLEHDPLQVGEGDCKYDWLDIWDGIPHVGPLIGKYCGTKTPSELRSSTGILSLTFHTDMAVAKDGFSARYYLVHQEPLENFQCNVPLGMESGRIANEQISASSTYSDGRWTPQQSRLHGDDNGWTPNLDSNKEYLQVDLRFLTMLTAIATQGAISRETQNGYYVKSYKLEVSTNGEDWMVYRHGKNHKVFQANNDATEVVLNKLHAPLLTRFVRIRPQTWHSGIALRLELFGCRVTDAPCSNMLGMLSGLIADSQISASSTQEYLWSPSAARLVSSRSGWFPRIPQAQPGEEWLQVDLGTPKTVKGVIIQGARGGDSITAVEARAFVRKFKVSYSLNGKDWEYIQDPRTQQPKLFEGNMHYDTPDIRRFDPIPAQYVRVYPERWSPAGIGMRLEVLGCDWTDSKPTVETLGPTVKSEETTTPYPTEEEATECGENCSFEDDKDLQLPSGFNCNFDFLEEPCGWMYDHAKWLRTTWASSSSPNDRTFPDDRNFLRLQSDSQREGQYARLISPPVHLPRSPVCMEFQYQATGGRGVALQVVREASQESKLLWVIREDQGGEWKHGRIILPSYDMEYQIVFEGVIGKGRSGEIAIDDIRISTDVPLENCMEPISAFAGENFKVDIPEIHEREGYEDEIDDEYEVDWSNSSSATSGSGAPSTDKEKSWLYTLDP

B1: aNRP2-b2cL, anti-NRP2 mAb (antibody, V domains shown)
VH: QVRLQQPGAELVMPGASVKLSCKASGYTFTSYWMHWVKQRPGQGLEWIGVIHPNSASTFYNERFKTKATLTVDRSSSTAYMQLSSLTSEDSAVYYCSRPGTVRRSDYWGQGTTLTVSS
VL: DVLMTQSPLSLSVSLGDQASISCRSSQNIVHSTGNTYLEWYLQKPGQSPKLLIYKVSNRFSGVPDRFSGSGSGTDFTLKISRVEAEDLGVYYCFQGSHVPWTFGGGTKLEIK
notes: also called Nb2cL
As for B1, the Kd in data set [1] is 0.33 nM.

B2: aPLXNA1-19-43 Fab (Fab, V domains shown)
VH: EVQLQQSGPELVKPGASVKISCKASGYKFTENYMDWVKQSHGESLEWIGDISPDNGDTSYNQKFRDKATLTVDKSSSTAYMELRSLTSEDSAVYYCAQIIYYDYVGYALDYWGQGTSVTVSS
VL: QIVLTQSPAILSASPGEKVTMSCSVSSSITYMHWYQQKPGTSPKRWIYDTSKLASGVPARFSGSGSGTSFSLTISNMEAEDAATYYCHQRSSYPYSFGGGTKLEIK
notes: VH of aPLXNA1-19-43; also in the deposited structure; constant part of the Fab heavy chain, mouse IgG1 backbone; VL (kappa) of aPLXNA1-19-43; mouse kappa light chain constant region (Fab captured by an anti-LC-kappa-murine antibody); Fab of the mAb aPLXNA1-19-43, the anti-PLXNA1 half of m6; also called aPLXNA1 Fab 19 to 43; aPLXNA1 Fab-P1943; source: Expi293F, transfected, purified from culture …
With B2, the results for the Kd in data set [2] and in data set [3] were 5.99 ± 1.14 nM and 2.37 ± 0.78 nM, respectively.

B3: PLXNA1-LBD, recombinant human plexinA1 ligand-binding domains (domain or fragment, UniProt Q9UIW2 27-710, looked up)
chain: EAGLPRAGGGSQPPFRTFSASDWGLTHLVVHEQTGEVYVGAVNRIYKLSGNLTLLRAHVTGPVEDNEKCYPPPSVQSCPHGLGSTDNVNKLLLLDYAANRLLACGSASQGICQFLRLDDLFKLGEPHHRKEHYLSSVQEAGSMAGVLIAGPPGQGQAKLFVGTPIDGKSEYFPTLSSRRLMANEEDADMFGFVYQDEFVSSQLKIPSDTLSKFPAFDIYYVYSFRSEQFVYYLTLQLDTQLTSPDAAGEHFFTSKIVRLCVDDPKFYSYVEFPIGCEQAGVEYRLVQDAYLSRPGRALAHQLGLAEDEDVLFTVFAQGQKNRVKPPKESALCLFTLRAIKEKIKERIQSCYRGEGKLSLPWLLNKELGCINSPLQIDDDFCGQDFNQPLGGTVTIEGTPLFVDKDDGLTAVAAYDYRGRTVVFAGTRSGRIRKILVDLSNPGGRPALAYESVVAQEGSPILRDLVLSPNHQYLYAMTEKQVTRVPVESCVQYTSCELCLGSRDPHCGWCVLHSICSRRDACERADEPQRFAADLLQCVQLTVQPRNVSVTMSQVPLVLQAWNVPDLSAGVNCSFEDFTESESVLEDGRIHCRSPSAREVAPITRGQGDQRVVKLYLKSKETGKKFASVDFVFYNCSVHQSCLSCVNGSFPCHWCKYRHVCTHNVADCAFLEGRVNVSEDCPQIL
notes: the DNA encoded amino acids 1-710 of NP_115618.3 (signal peptide removed on secretion); The final cryo-EM model holds only the SEMA and PSI1 domains; also called hPLXNA1 LBD; source: Expi293F, transfected, purified from culture media (HiTrap MabSelect column)
For the molecule B3, the “stoichiometry N” value in data set [4] came out at 2.
